Assay results published in patent publication US20220152105A1 (published 2022).

Biological target: T1, gp100 peptide on HLA-C*06:02 (human)
T1 peptide: HRRGSRSYV
Test: multimer staining
Experimental: T cells (1×10⁵) were incubated for 30 minutes at 37° C. in the presence of 50 nM dasatinib (LC laboratories). The cells were then washed and incubated with 5-10 μg/ml of multimer for 30 minutes at room temperature, and R-phycoerythrin-conjugated AffiniPure Fab fragment goat anti-mouse IgG1 (Jackson ImmunoResearch Laboratories) was added for 15 minutes at 4° C. Next, the cells were washed three times and costained with an anti-CD8 mAb for 15 minutes at 4° C. Dead cells were finally discriminated using the LIVE/DEAD Fixable Dead Cell Stain kit.

binding result: recognises
B1: C*06:02/gp100190-198 TCR (TCR, V domains shown)
Valpha: KNQVEQSPQSLIILEGKNCTLQCNYTVSPFSNLRWYKQDTGRGPVSLTIMTFSENTKSNGRYTATLDADTKQSSLHITASQLSDSASYICVVRGMDSSYKLIFGSGTRLLVRP
Vbeta: DAMVIQNPRYQVTQFGKPVTLSCSQTLNHNVMYWYQQKSSQAPKLLFHYYDKDFNNEADTPDNFQSRRPNTSFCFLDIRSPGLGDAAMYLCATSSEDSSNQPQHFGDGTRLSIL
